Series [1] has as its system HeLa Kyoto. Put plainly: solubility in G1/S (NP-40 vs SDS abundance) (log2 ratio); higher = more soluble. To be noted: cell cycle stage: G1/S.
Series [2] deals with HeLa Kyoto. Description: melting temperature (median over replicates), in situ; higher = more thermally stable.
Series [3] has as its system HeLa Kyoto. Put plainly: solubility change mitosis vs G1/S (difference of NP-40 vs SDS log2 ratios) (log2 ratio difference); higher = more soluble in mitosis.
Series [4] relates to HeLa Kyoto. Put plainly: thermal stability score vs G1/S (z-score of summed log2 fold changes over temperatures); higher = more thermally stable than in G1/S.
The mark [5] stands for this setting: cell cycle stage: early G1 (4.5 h after nocodazole release).
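Throughout, for melting temperature (median over replicates), in situ: HeLa Kyoto cells synchronized by double thymidine or nocodazole block, proteins quantified by TMT10plex mass spectrometry, three independent biological replicates.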
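Throughout, for solubility change mitosis vs G1/S (difference of NP-40 vs SDS log2 ratios): synchronized HeLa Kyoto cells (double thymidine block for G1/S, nocodazole release for mitosis), protein amounts in NP-40 versus SDS lysates quantified by mass spectrometry, three biological replicates.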
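Throughout, for solubility in G1/S (NP-40 vs SDS abundance): HeLa Kyoto cells arrested at G1/S by double thymidine block, proteins quantified by TMT10plex mass spectrometry in mild NP-40 versus SDS extracts, three biological replicates.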
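Throughout, for thermal stability score vs G1/S (z-score of summed log2 fold changes over temperatures): synchronized HeLa Kyoto cells, proteins quantified by TMT10plex mass spectrometry, three biological replicates, mitosis taken 0.5 h after nocodazole release, G1/S directly after double thymidine block.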

Consider “MTSHYVIAIFALMSSCLATAGPEPGALCELSPVSASHPVQALMESFTVLSGCASRGTTGLPQEVHVLNLRTAGQGPGQLQREVTLHLNPISSVHIHHKSVVFLLNSPHPLVWHLKTERLATGVSRLFLVSEGSVVQFSSANFSLTAETEERNFPHGNEHLLNWARKEYGAVTSFTELKIARNIYIKVGEDQVFPPKCNIGKNFLSLNYLAEYLQPKAAEGCVMSSQPQNEEVHIIELITPNSNPYSAFQVDITIDIRPSQEDLEVVKNLILILKCKKSVNWVIKSFDVKGSLKIIAPNSIGFGKESERSMTMTKSIRDDIPSTQGNLVKWALDNGYSPITSYTMAPVANRFHLRLENNAEEMGDEEVHTIPPELRILLDPGALPALQNPPIRGGEGQNGGLPFPFPDISRRVWNEEGEDGLPRPKDPVIPSIQLFPGLREPEEVQGSVDIALSVKCDNEKMIVAVEKDSFQASGYSGMDVTLLDPTCKAKMNGTHFVLESPLNGCGTRPRWSALDGVVYYNSIVIQVPALGDSSGWPDGYEDLESGDNGFPGDMDEGDASLFTRPEIVVFNCSLQQVRNPSSFQEQPHGNITFNMELYNTDLFLVPSQGVFSVPENGHVYVEVSVTKAEQELGFAIQTCFISPYSNPDRMSHYTIIENICPKDESVKFYSPKRVHFPIPQADMDKKRFSFVFKPVFNTSLLFLQCELTLCTKMEKHPQKLPKCVPPDEACTSLDASIIWAMMQNKKTFTKPLAVIHHEAESKEKGPSMKEPNPISPPIFHGLDTLTVMGIAFAAFVIGALLTGALWYIYSHTGETAGRQQVPTSPPASENSSAAHSIGSTQSTPCSSSSTA [TGFBR3]”, for which the “solubility in G1/S (log2)” value in the series with HeLa Kyoto [1] was -0.155. The melting temperature stood at 53.8 °C in the series on HeLa Kyoto [2] (cell cycle stage: G1/S) and 54.4 °C in the series on HeLa Kyoto [2] (cell cycle stage: mitosis). For the same sequence, the “solubility change mitosis (log2)” value with HeLa Kyoto [3] was -0.094. Moreover, the values for the thermal stability score in the series with HeLa Kyoto [4] (setting [5]) and with HeLa Kyoto [4] (cell cycle stage: mitosis) were 1.1 and 2.26, respectively.
In the case of “MTSKKLVNSVAGCADDALAGLVACNPNLQLLQGHRVALRSDLDSLKGRVALLSGGGSGHEPAHAGFIGKGMLTGVIAGAVFTSPAVGSILAAIRAVAQAGTVGTLLIVKNYTGDRLNFGLAREQARAEGIPVEMVVIGDDSAFTVLKKAGRRGLCGTVLIHKVAGALAEAGVGLEEIAKQVNVVAKAMGTLGVSLSSCSVPGSKPTFELSADEVELGLGIHGEAGVRRIKMATADEIVKLMLDHMTNTTNASHVPVQPGSSVVMMVNNLGGLSFLELGIIADATVRSLEGRGVKIARALVGTFMSALEMPGISLTLLLVDEPLLKLIDAETTAAAWPNVAAVSITGRKRSRVAPAEPQEAPDSTAAGGSASKRMALVLERVCSTLLGLEEHLNALDRAAGDGDCGTTHSRAARAIQEWLKEGPPPASPAQLLSKLSVLLLEKMGGSSGALYGLFLTAAAQPLKAKTSLPAWSAAMDAGLEAMQKYGKAAPGDRTMLDSLWAAGQELQAWKSPGADLLQVLTKAVKSAEAAAEATKNMEAGAGRASYISSARLEQPDPGAVAAAAILRAILEVLQS [TKFC]”, the “solubility in G1/S (log2)” value in the series with HeLa Kyoto [1] was 0.321. Besides, the melting temperature in the series with HeLa Kyoto [2] (cell cycle stage: G1/S) was 54.8 °C; with HeLa Kyoto [2] (cell cycle stage: mitosis), 55 °C. Further, the “solubility change mitosis (log2)” value in the series on HeLa Kyoto [3] was -0.0666. The thermal stability score amounted to 1.34 in the series with HeLa Kyoto [4] (setting [5]) and 0.558 with HeLa Kyoto [4] (cell cycle stage: mitosis).
Take “MTSLMPGAGLLPIPTPNPLTTLGVSLSSLGAIPAAALDPNIATLGEIPQPPLMGNVDPSKIDEIRRTVYVGNLNSQTTTADQLLEFFKQVGEVKFVRMAGDETQPTRFAFVEFADQNSVPRALAFNGVMFGDRPLKINHSNNAIVKPPEMTPQAAAKELEEVMKRVREAQSFISAAIEPESGKSNERKGGRSRSHTRSKSRSSSKSHSRRKRSQSKHRSRSHNRSRSRQKDRRRSKSPHKKRSKSRERRKSRSRSHSRDKRKDTREKIKEKERVKEKDREKEREREKEREKEKERGKNKDRDKEREKDREKDKEKDREREREKEHEKDRDKEKEKEQDKEKEREKDRSKEIDEKRKKDKKSRTPPRSYNASRRSRSSSRERRRRRSRSSSRSPRTSKTIKRKSSRSPSPRSRNKKDKKREKERDHISERRERERSTSMRKSSNDRDGKEKLEKNSTSLKEKEHNKEPDSSVSKEVDDKDAPRTEENKIQHNGNCQLNEENLSTKTEAV [SREK1]”: in the series on HeLa Kyoto [1], the “solubility in G1/S (log2)” value was -0.849. The melting temperature with HeLa Kyoto [2] (cell cycle stage: G1/S) came out at 48.9 °C; with HeLa Kyoto [2] (cell cycle stage: mitosis) it was 50.6 °C. The “solubility change mitosis (log2)” value with HeLa Kyoto [3] is 0.262. Further, the thermal stability score with HeLa Kyoto [4] (setting [5]) is 1.86; in the series on HeLa Kyoto [4] (cell cycle stage: mitosis), 4.67.
